{"source": "paper PMC12102759", "about": "(Protein Science : A Publication of the Protein Society, 2025)", "conditions_in_all_cases": "both partners purified", "key": {"[1]": {"target": "SARS-CoV-2 non-structural protein 9 (NSP9) (SARS-CoV-2, UniProt P0DTD1 4141-4253)", "experiment": "fluorescence polarisation"}, "[2]": {"target": "SARS-CoV-2 NSP3 SUD-M domain (SARS-CoV-2, UniProt P0DTD1 1356-1493)", "experiment": "fluorescence polarisation"}, "[3]": {"target": "T1, talin-1 phosphotyrosine binding (TLN1 PTB) domain (human, UniProt Q9Y490 309-401)", "T1 construct": "source: E. coli BL21 (DE3), purified (Ni Sepharose, tag cleaved with HRV 3C protease)", "experiment": "fluorescence polarisation; displacement: unlabelled peptide in serial dilution added to FITC-labelled probe peptide with the protein at 4x the KD value; 50 mM KPO4 pH 7.5; triplicates; sigmoidal dose-response fit"}, "[4]": {"target": "SARS-CoV-2 NSP3 ADRP domain (SARS-CoV-2, UniProt P0DTD1 1023-1192)", "experiment": "fluorescence polarisation"}, "[5]": {"target": "T2, talin‐1 PTB domain (309–401), tag cleaved, for FP (human, UniProt Q9Y490 309-401)", "T2 construct": "also called TLN1 PTB; source: E. coli BL21 (DE3), purified (Ni Sepharose, HRV 3C cleavage)", "T2 sequence (Q9Y490 309-401)": "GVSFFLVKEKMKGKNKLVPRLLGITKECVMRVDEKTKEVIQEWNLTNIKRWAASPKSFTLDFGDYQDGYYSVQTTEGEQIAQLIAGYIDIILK", "experiment": "fluorescence polarisation; human domains; saturation with FITC-labelled probe peptide or displacement by unlabelled peptide; 50 mM KPO4 pH 7.5, DTT; triplicates; the text does not tell which of the two gave each KD"}, "[6]": {"target": "SARS-CoV-2 NSP3 UBl1 domain (SARS-CoV-2, UniProt P0DTD1 819-925)", "experiment": "fluorescence polarisation"}, "[7]": {"target": "talin-1 phosphotyrosine binding (TLN1 PTB) domain (human, UniProt Q9Y490 309-401)", "experiment": "fluorescence polarisation; saturation (direct binding): human bait protein in serial dilution added to 10 nM-master-mix FITC-labeled probe peptide; 50 mM KPO4 pH 7.5, DTT; triplicates; fit to a quadratic equation"}, "[8]": {"target": "G3BP1 NTF2-like domain (1–139), tag cleaved, for FP (human, UniProt Q13283 1-139)", "sequence (Q13283 1-139)": "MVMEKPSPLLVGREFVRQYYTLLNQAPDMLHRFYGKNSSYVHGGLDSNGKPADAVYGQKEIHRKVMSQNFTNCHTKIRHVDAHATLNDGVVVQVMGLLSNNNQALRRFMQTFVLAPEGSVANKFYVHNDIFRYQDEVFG", "experiment": "fluorescence polarisation"}}, "note": "No end group written: not given here. *: point of attachment. FITC = O=C1OC2(c3ccc(O)cc3Oc3cc(O)ccc32)c2ccc(NC(=S)*)cc21", "data": [{"binder": "AEGIDIGEMPSYDLVL (FITC on the N-terminus, NKRF residues 8-23)", "note": "[FITC-labelled NKRF peptide 8-23]", "values": [{"measurement": "Kd", "setting": "[1]", "result": 15.5, "unit": "µM"}]}, {"binder": "QGAWLGAPEPWEPLLD", "note": "[NOTCH4 wt peptide 1606-1621]", "values": [{"measurement": "IC50", "setting": "[1]", "result": 205, "unit": "µM"}]}, {"binder": "FTEEDLHFVLYGVTPS (FITC on the N-terminus)", "note": "[FITC-labelled PRDM14 peptide 197-212]", "values": [{"measurement": "Kd", "setting": "[2]", "result": 19, "unit": "µM"}]}, {"binder": "Ac-LADLIFTDSKLYIPLE-NH2", "note": "[TPTE2 wt peptide 92-107]", "values": [{"measurement": "IC50", "setting": "[3]", "result": 15, "unit": "µM"}]}, {"binder": "Ac-LADLIFTDSKLYAPLE-NH2", "note": "[TPTE2_I104A peptide 92-107]", "values": [{"measurement": "IC50", "setting": "[3]", "result": 55, "unit": "µM"}]}, {"binder": "Ac-LADLIFTDSKLWIPLE-NH2", "note": "[TPTE2_Y103W peptide 92-107]", "values": [{"measurement": "IC50", "setting": "[3]", "result": 66, "unit": "µM"}]}, {"binder": "Ac-LADLIFTDSKLYLPLE-NH2", "note": "[TPTE2_I104L peptide 92-107]", "values": [{"measurement": "IC50", "setting": "[3]", "result": 14, "unit": "µM"}, {"measurement": "Kd", "setting": "[3]", "result": 4.5, "unit": "µM"}]}, {"binder": "Ac-LADLIFTDNKLYIPLE-NH2", "note": "[TPTE2_S100N peptide 92-107]", "values": [{"measurement": "IC50", "setting": "[3]", "result": 5.2, "unit": "µM"}]}, {"binder": "Ac-LADLIFTDSALYIPLE-NH2", "note": "[TPTE2_K101A peptide 92-107]", "values": [{"measurement": "IC50", "setting": "[3]", "result": 45, "unit": "µM"}, {"measurement": "Kd", "setting": "[3]", "result": 15, "unit": "µM"}]}, {"binder": "Ac-LADLIWTDSKLYIPLE-NH2", "note": "[TPTE2_F97W peptide 92-107]", "values": [{"measurement": "IC50", "setting": "[3]", "result": 0.4, "unit": "µM"}]}, {"binder": "Ac-LADLIYTDSKLYIPLE-NH2", "note": "[TPTE2_F97Y peptide 92-107]", "values": [{"measurement": "IC50", "setting": "[3]", "result": 440, "unit": "µM"}]}, {"binder": "GSTYLHPLSELLGIPL (FITC on the N-terminus)", "note": "[FITC-labelled MBOAT1 peptide 16-31]", "values": [{"measurement": "Kd", "setting": "[4]", "result": 50.8, "unit": "µM"}]}, {"binder": "LADLIFTDSKLYIPLE (source: synthetic peptide (GeneCust))", "note": "[wild‐type TPTE2_(92‐107) peptide]", "values": [{"measurement": "Kd", "setting": "[5]", "result": 4.5, "unit": "µM"}]}, {"binder": "LADLIFTDSKLWIPLE (source: synthetic peptide (GeneCust))", "note": "[TPTE2 Y103W peptide]", "values": [{"measurement": "Kd", "setting": "[5]", "result": 22, "unit": "µM"}]}, {"binder": "LADLIFTDNKLYIPLE (source: synthetic peptide (GeneCust))", "note": "[TPTE2_(92‐107) S100N peptide]", "values": [{"measurement": "Kd", "setting": "[5]", "result": 1.7, "unit": "µM"}]}, {"binder": "LADLIYTDSKLYIPLE (source: synthetic peptide (GeneCust))", "note": "[TPTE2_(92‐107) F97Y peptide]", "values": [{"measurement": "Kd", "setting": "[5]", "result": 150, "unit": "µM"}]}, {"binder": "LADLIFTDSKLYLPLE (source: synthetic peptide (GeneCust))", "note": "[TPTE2 I104L peptide]", "values": [{"measurement": "binding result", "setting": "[5]", "result": "binds"}]}, {"binder": "LADLIFTDSKLYAPLE (source: synthetic peptide (GeneCust))", "note": "[TPTE2 I104A peptide]", "values": [{"measurement": "Kd", "setting": "[5]", "result": 18, "unit": "µM"}]}, {"binder": "LADLIWTDSKLYIPLE (source: synthetic peptide (GeneCust))", "note": "[TPTE2_(92‐107) F97W peptide]", "values": [{"measurement": "Kd", "setting": "[5]", "result": 0.1, "unit": "µM"}]}, {"binder": "SDEGALLDQLYLALRN (FITC on the N-terminus)", "note": "[FITC-labelled NCOA2 peptide 1074-1089]", "values": [{"measurement": "Kd", "setting": "[6]", "result": 67, "unit": "µM"}]}, {"binder": "{FITC}-FPTDERSWVYSPLHYS (source: synthetic peptide (GeneCust))", "note": "[FITC-labeled PIP5K1C probe peptide FITC-FPTDERSWVYSPLHYS]", "values": [{"measurement": "Kd", "setting": "[7]", "result": 65, "unit": "nM"}]}, {"binder": "QFTEEDLHFVLYGVTPY", "note": "[PRDM14 wt peptide 196-211]", "values": [{"measurement": "IC50", "setting": "[2]", "result": 400, "unit": "µM"}]}, {"binder": "STYLHPLSELLGIPLD", "note": "[MBOAT1 wt peptide 17-32]", "values": [{"measurement": "IC50", "setting": "[4]", "result": 175, "unit": "µM"}]}, {"binder": "PSDEGALLDQLYLALR", "note": "[NCOA2 wt peptide 1073-1088]", "values": [{"measurement": "IC50", "setting": "[6]", "result": 139, "unit": "µM"}]}, {"binder": "APRITFGGPSDSTGS", "note": "[wildtype SARS‐CoV‐2 N_(12–26) peptide]", "values": [{"measurement": "Kd", "setting": "[8]", "result": 2300, "unit": "nM"}]}]}
